B1: Transgelin 3 (TAGLN3) (natural protein, human, UniProt Q9UI15 1-199, looked up)
chain: MANRGPSYGLSREVQEKIEQKYDADLENKLVDWIILQCAEDIEHPPPGRAHFQKWLMDGTVLCKLINSLYPPGQEPIPKISESKMAFKQMEQISQFLKAAETYGVRTTDIFQTVDLWEGKDMAAVQRTLMALGSVAVTKDDGCYRGEPSWFHRKAQQNRRGFSEEQLRQGQNVIGLQMGSNKGASQAGMTGYGMPRQIM
B2: IκBα (natural protein, UniProt P25963 1-317, looked up)
chain: MFQAAERPQEWAMEGPRDGLKKERLLDDRHDSGLDSMKDEEYEQMVKELQEIRLEPQEVPRGSEPWKQQLTEDGDSFLHLAIIHEEKALTMEVIRQVKGDLAFLNFQNNLQQTPLHLAVITNQPEIAEALLGAGCDPELRDFRGNTPLHLACEQGCLASVGVLTQSCTTPHLHSILKATNYNGHTCLHLASIHGYLGIVELLVSLGADVNAQEPCNGRTALHLAVDLQNPDLVSLLLKCGADVNRVTYQGYSPYQLTWGRPSTRIQQQLGQLTLENLQMLPESEDEESYDTESEFTEFTEDELPYDDCVFGGQRLTL

Legend:
[1] = biological target: B2; assay: nanoDSF
[2] = biological target: B1; assay: nanoDSF

Kd [1] | Binder | Tm of TAGLN3 with 6-fold excess of IκBα (free TAGLN3: 56.8°C) [2]
10 µM | B1 | 
 | B2 | 61 °C
